Results as given in patent CN116675768A (WUHAN ABCLONAL INC, dated 2023).

Target: T1, 重组人NEFL蛋白 (human, UniProt P07196 400-543)
T1 construct: Expressed in E. coli Rosetta(DE3) from the vector pET-28a-sumo and purified on a Ni column; also called 人轻肽神经细丝蛋白(NEFL); 神经丝轻链
T1 sequence: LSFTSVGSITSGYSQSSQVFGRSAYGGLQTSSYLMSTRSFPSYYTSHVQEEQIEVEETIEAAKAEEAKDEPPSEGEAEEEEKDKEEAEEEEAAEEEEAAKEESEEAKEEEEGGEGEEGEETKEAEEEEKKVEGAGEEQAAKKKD
Assay: BLI (Gator); antibody 2 μg/mL, recombinant human NEFL 150 nM and 75 nM

B1: 兔单克隆抗体1H8 (antibody, V domains shown)
VH: QSLEESGGRLVTPGTPLTLTCAVSGIDLSRYGIDWVRQAPGKGLEWIGTVSAGGDSWYASWAKGRFTISKTSSTTVDLEVTSPTTEDTATYFCAKGATLNLWGQGTLVTVSS
VL: DPVLTQTPSSTSAAVGGTVTINCQSSQNVYGNNWLAWYQKKPGQSPKLLIISASSLPSGVPSRFKGSGSGTQFTLTISDLECDDAATYYCAGGYSGYIYTFGGGTEVVVKG
notes: also called 抗人NEFL蛋白的兔单克隆抗体1H8; 捕获抗体
In the case of B1, the Kd is reported as 2.03 nM, the koff is reported as 0.000504 s⁻¹ and the kon is reported as 248000 M⁻¹ s⁻¹.

B2: 兔单克隆抗体2G10 (antibody, V domains shown)
VH: QSLEESGGRLVTPGTRLTLTCTVSGFSLGRYAMGWVRQAPGKGLEWIGIINSYGTTYYASWAKGRFTISKTSTTVDLKITSPTTEDTATYFCARDGYEDYGDYYNAFDPWGPGTLVTVSS
VL: DVVMTQTPASVSEPVGGTVTIKCQASQSIGVTLAWYQQKPGQPPKLLIYKASNLASGVSSRFKGSRSGTEYTLTISDLECADAATYYCQCTWYGPSFVGAFGGGTEVVVKG
notes: also called 抗人NEFL蛋白的兔单克隆抗体2G10; 2G10-biotin
B2 showed a Kd of 3.2 nM, a koff of 0.00043 s⁻¹ and a kon of 134000 M⁻¹ s⁻¹.
